Measured values taken from PMC11151058, “The Transpeptidase Sortase A Binds Nucleic Acids and Mediates Mammalian Cell Labeling”.

Assays:
mgSrtA-H120A = mgSrtA-H120A (Staphylococcus aureus, UniProt Q2FV99 60-206, P94R;H120A;D124G;D160N;D165A;Y187L;E189R;K190E;K196T;F200L); assay: band shift, SDS western blot; Western-blot shift: 10 uM protein, 20 uM oligo, HBSS, 37 C, 30 min (Fig 3D 10 min); EMSA: HBSS, 37 C, 30 min, 6% PAGE; MST: 20 mM HEPES, 300 mM NaCl, pH 6.8, 0.1% Tween 20, 25 C; conditions: protein: recombinant; tags: N-terminal 6xHis (pET-28a); label: 5'Biotin, 3'FITC
mgSrtA-mono = mgSrtA-mono (Staphylococcus aureus, UniProt Q2FV99 60-206, P94R;D124G;N132A;K137A;Y143A;D160N;D165A;Y187L;E189R;K190E;K196T;F200L); assay: as above; conditions: protein: recombinant; tags: N-terminal 6xHis (pET-28a); label: 5'Biotin, 3'FITC
mgSrtA [1] = target: T1, mgSrtA (Staphylococcus aureus, UniProt Q2FV99 60-206, P94R;D124G;D160N;D165A;Y187L;E189R;K190E;K196T;F200L); assay: as above; conditions: protein: recombinant, tags: N-terminal 6xHis (pET-28a), label: 5'Biotin
mgSrtA-C184A = mgSrtA-C184A (Staphylococcus aureus, UniProt Q2FV99 60-206, P94R;D124G;D160N;D165A;C184A;Y187L;E189R;K190E;K196T;F200L); assay: as above; conditions: protein: recombinant; tags: N-terminal 6xHis (pET-28a); label: 5'Biotin, 3'FITC
mgSrtA-L200F = mgSrtA-L200F (Staphylococcus aureus, UniProt Q2FV99 60-206, P94R;D124G;D160N;D165A;Y187L;E189R;K190E;K196T); assay: as above; conditions: protein: recombinant; tags: N-terminal 6xHis (pET-28a); label: 5'Biotin, 3'FITC
WTSrtA = WTSrtA (Staphylococcus aureus, UniProt Q2FV99 60-206); assay: as above; conditions: protein: recombinant; tags: N-terminal 6xHis (pET-28a); label: 5'Biotin, 3'FITC
5M SrtA = 5M SrtA (Staphylococcus aureus, UniProt Q2FV99 60-206, P94R;D160N;D165A;K190E;K196T); assay: as above; conditions: protein: recombinant; tags: N-terminal 6xHis (pET-28a); label: 5'Biotin, 3'FITC
mgSrtA-R197A = mgSrtA-R197A (Staphylococcus aureus, UniProt Q2FV99 60-206, P94R;D124G;D160N;D165A;Y187L;E189R;K190E;K196T;R197A;F200L); assay: as above; conditions: protein: recombinant; tags: N-terminal 6xHis (pET-28a); label: 5'Biotin, 3'FITC
mgSrtA-triple = mgSrtA-triple (Staphylococcus aureus, UniProt Q2FV99 60-206, P94R;H120A;D124G;D160N;D165A;C184A;Y187L;E189R;K190E;K196T;R197A;F200L); assay: as above; conditions: protein: recombinant; tags: N-terminal 6xHis (pET-28a); label: 5'Biotin, 3'FITC
mgSrtA [2] = target: T1, mgSrtA; assay: band shift, SDS western blot; 1 uM oligo; Western-blot shift: 10 uM protein, 20 uM oligo, HBSS, 37 C, 30 min (Fig 3D 10 min); EMSA: HBSS, 37 C, 30 min, 6% PAGE; MST: 20 mM HEPES, 300 mM NaCl, pH 6.8, 0.1% Tween 20, 25 C; conditions: protein: recombinant; tags: N-terminal 6xHis (pET-28a); label: 5'Biotin
mgSrtA [3] = target: T1, mgSrtA; assay: band shift, SDS western blot; 50 uM oligo; Western-blot shift: 10 uM protein, 20 uM oligo, HBSS, 37 C, 30 min (Fig 3D 10 min); EMSA: HBSS, 37 C, 30 min, 6% PAGE; MST: 20 mM HEPES, 300 mM NaCl, pH 6.8, 0.1% Tween 20, 25 C; conditions: protein: recombinant; tags: N-terminal 6xHis (pET-28a); label: 5'Biotin
mgSrtA [4] = target: T1, mgSrtA; assay: band shift, SDS western blot; 20 uM oligo; Western-blot shift: 10 uM protein, 20 uM oligo, HBSS, 37 C, 30 min (Fig 3D 10 min); EMSA: HBSS, 37 C, 30 min, 6% PAGE; MST: 20 mM HEPES, 300 mM NaCl, pH 6.8, 0.1% Tween 20, 25 C; conditions: protein: recombinant; tags: N-terminal 6xHis (pET-28a); label: 5'Biotin

Question: What does the source list for GGGG (ssDNA) [BF 4G]?
Answer: binding result (mgSrtA-H120A): binds; binding result (mgSrtA-mono): binds; binding result (mgSrtA [1]; 3'FITC): binds; binding result (mgSrtA-C184A): binds; binding result (mgSrtA-L200F): binds; binding result (WTSrtA): binds; binding result (5M SrtA): binds; binding result (mgSrtA-R197A): binds; binding result (mgSrtA-triple): binds

Question: Does GGGGCGGGGTGGGGC (ssDNA) [15G] bind (mgSrtA [2])?
Answer: Result: binds

Question: Does GGGGCGGGGTGGGGCGGGGT (ssDNA) [20G] bind (mgSrtA [2])?
Answer: Result: binds

Question: Does GGGGGG (ssDNA) [6G] bind (mgSrtA [3])?
Answer: Result: binds

Question: Does GGGGGGGG (ssDNA) [8G] bind (mgSrtA [4])?
Answer: Result: binds

Question: Does GGGG (ssDNA) [4G (Fig S17)] bind (mgSrtA [1])?
Answer: Result: binds
